Data taken from article PMC3223204, “Implantation Serine Proteinase 1 Exhibits Mixed Substrate Specificity that Silences Signaling via Proteinase-Activated Receptors” (PLoS ONE, 2011).

Columns and labels:
rat PAR2 = molecular target: T1, rat PAR2 (Rattus norvegicus, UniProt Q63645); experiment: Calcium signaling assay, PAR2 activation/disarming in KNRK cells; assay type: cell-based
T1 construct: expressed in transfected cells; host or cells: KNRK (Kirsten virus-transformed normal rat kidney) cells
T1 sequence (Q63645 26-397): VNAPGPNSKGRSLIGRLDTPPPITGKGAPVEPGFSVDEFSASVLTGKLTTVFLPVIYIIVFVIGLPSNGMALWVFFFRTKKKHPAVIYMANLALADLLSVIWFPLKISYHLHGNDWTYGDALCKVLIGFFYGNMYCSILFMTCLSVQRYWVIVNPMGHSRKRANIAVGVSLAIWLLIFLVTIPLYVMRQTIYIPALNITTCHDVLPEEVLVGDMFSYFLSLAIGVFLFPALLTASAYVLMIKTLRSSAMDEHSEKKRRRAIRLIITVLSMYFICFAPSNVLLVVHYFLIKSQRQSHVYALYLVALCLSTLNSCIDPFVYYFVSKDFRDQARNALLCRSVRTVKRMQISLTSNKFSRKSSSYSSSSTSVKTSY
Description: (§1) The Kirsten virus-transformed normal rat kidney (KNRK) epithelial cell line expressing wild-type rat PAR2 (KNRKrPAR2), validated previously for studies of receptor activation was used to evaluate the PAR2-regulating properties of the ISP1 by the methods described previously. Human embryonic kidney cells (HEK293) that express the SV40 T-antigen were kindly provided by Dr. Jonathan Lytton, University of Calgary, Faculty of Medicine, Calgary (Alberta) Canada. The human HEK293 cells, that constitutively express both PAR1 and PAR2, were grown under similar conditions as described for the KNRK cells, but in the absence of geneticin, as outlined for the PAR-mediated calcium signaling procedure described previously. All cells were sub-cultured by dissociation in an isotonic EDTA/saline solution, pH 7.4, without the use of trypsin, to avoid cleavage of PARs.
(§2) Cell lines (grown to about 85% confluence and disaggregated with calcium-free isotonic phosphate-buffered saline containing 0.2 mM EDTA) and rat platelets (harvested from platelet-rich anti-coagulated plasma) were prepared and used as previously described. Cells were incubated for 25 min at room temperature with Fluo-3 acetoxymethyl ester (final concentration, 22 µM) along with 0.4 mM sulfinpyrazone. Cells were washed twice by centrifugation (using the following buffer without calcium) and resuspended in the calcium signaling buffer: 150 mM NaCl, 3 mM KCl, 1.5 mM CaCl2, 20 mM HEPES, 10 mM dextrose, and 0.25 mM sulfinpyrazone, pH 7.4.
(§3) Fluorescence was measured at 24 °C with an excitation wavelength of 480 nm and an emission recorded at 530 nm using an Aminco Bowman Series 2 Luminescence spectrometer (ThermoSpectronic Model FA354, Spectronic Unicam, Rochester, NY). The fluorescence signals caused by the addition of test agonists (trypsin, PAR-activating peptide or rISP1, added to 2 ml of a cell suspension of ~3 x 10^5 cells/ml) were compared with the fluorescence peak height yielded by replicate cell suspensions treated with 2 µM ionophore A23187. This concentration of A23187 was at the plateau of its concentration-response curve for a fluorescence response in Fluo-3-loaded cultured cells. Under these conditions, the calculated values for intracellular calcium in the HEK and KNRK cells were [picture] […]
(§4) Previous work has shown that the fluorescence response of a cell preparation, as a percentage relative to the signal generated by 2 µM A23187, is a valid reference standard for the comparative determination of calcium signals for all PAR agonists. The cellular calcium response was therefore recorded as a percentage of the response generated by 2 µM ionophore A23187 [6]. […]
(§5) Receptor activation was monitored as an enzyme-stimulated increase in fluorescence emission (E530). […]

thrombin = molecular target: T2, thrombin (Homo sapiens, UniProt P00734); experiment: Effect of ISP1 on enzyme activity of thrombin; assay type: biochemical; details: data not shown
T2 construct: High activity human thrombin (cat. number 605195, lot B37722; 3,186 NIH units/mg) was from Calbiochem; purchased Calbiochem 605195

human PAR1 = molecular target: T3, human PAR1 (Homo sapiens, UniProt P25116); experiment: Calcium signaling assay, PAR1 activation/disarming in HEK cells; assay type: cell-based
T3 construct: The human HEK293 cells, that constitutively express both PAR1 and PAR2; endogenous in cells; host or cells: HEK293 (expressing SV40 T-antigen)
T3 sequence (P25116 22-425): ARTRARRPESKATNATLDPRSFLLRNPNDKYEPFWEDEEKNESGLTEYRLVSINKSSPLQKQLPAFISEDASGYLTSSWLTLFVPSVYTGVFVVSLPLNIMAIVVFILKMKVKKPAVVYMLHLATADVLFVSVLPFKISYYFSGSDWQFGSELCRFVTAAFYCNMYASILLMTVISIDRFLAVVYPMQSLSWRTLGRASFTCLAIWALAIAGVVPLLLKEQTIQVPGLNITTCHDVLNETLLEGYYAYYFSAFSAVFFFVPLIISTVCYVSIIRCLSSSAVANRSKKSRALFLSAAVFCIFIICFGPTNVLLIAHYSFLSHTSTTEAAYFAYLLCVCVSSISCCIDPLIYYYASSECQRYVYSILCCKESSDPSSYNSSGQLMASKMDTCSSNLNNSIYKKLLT
Description: as §1, §2, §3, §4, §5

Cellular response to PAR2-activating peptide after ISP1 pre-treatment (rat PAR2; SLIGRL-NH2 (10 µM), concentration-dependent): diminished
Activation of a calcium signal via PAR2 (rat PAR2; enzyme alone): did not activate a calcium signal
residual PAR2 activity triggered by trypsin (rat PAR2; pre-treatment with 5 Units/ml ISP1, then trypsin (1.0 units/ml)): ~80%
residual PAR2 activity (% of control) (rat PAR2; pre-treatment with 20 units ISP1/ml, then trypsin (1.0 units/ml)): ~40%
Inhibitory effect on enzyme activity of thrombin (thrombin): doesn't have any inhibitory effect
Cellular response to PAR1-activating peptide after ISP1 pre-treatment (human PAR1; TFLLR-NH2 (5 µM), concentration-dependent): diminished
Activation of a calcium signal via PAR1 (human PAR1; enzyme alone): did not activate a calcium signal
residual PAR1 activity (human PAR1; pre-treatment with 5 Units/ml ISP1, then thrombin (0.5 units/ml)): 20%
residual PAR1 activity (human PAR1; pre-treatment with 20 units ISP1/ml, then thrombin (0.5 units/ml)): eliminate PAR1 activity completely
B1: ISP1: recombinant implantation serine proteinase 1 expressed in Pichia pastoris, also known as Mouse Prss28 (protein, UniProt Q924N9 27-274, looked up)
Serine protease 28: KPVGIVGGQRTPPGKWPWQVSLRMYSYEVNSWVHICGGSIIHPQWILTAAHCIQSQDADPAVYRVQVGEVYLYKEQELLNISRIIIHPDYNDVSKRFDLALMQLTALLVTSTNVSPVSLPKDSSTFDSTDQCWLVGWGNLLQRVPLQPPYQLHEVKIPIQDNKSCKRAYRKKSSDEHKAVAIFDDMLCAGTSGRGPCFGDSGGPLVCWKSNKWIQVGVVSKGIDCSNNLPSIFSRVQSSLAWIHQHIQ
modifications: recombinant, Pichia pastoris-expressed
notes: recombinant implantation serine proteinase 1 expressed in Pichia pastoris, also known as Mouse Prss28
